According to patent US9580487B2, “Method of treating stomach or bowel-related disorders by administering glucagon-like-peptide-2 (GLP-2) analogues” (Zealand Pharma A/S, priority 2005, dated 2017):

Experiments:
[1] = system: male C57BL mice; experiment: Dose-response effect on intestinal growth (SI mass, SI-Colon Sensitivity Index, colon and stomach mass); type: in vivo; details: 5-405 nmol/kg s.c. b.i.d. for three days, vs vehicle
Method: Values are means±SEM. *: P<0.05 relative to the equimolar dose of [Gly2]GLP-2 (SEQ ID NO:54).
FIG. 2 is a set of graphs showing full dose-response data of four small intestine selective compounds (compound nos. 1846 (SEQ ID NO:34), 1855 (SEQ ID NO:43), 1848 (SEQ ID NO:36), 1858 (SEQ ID NO:46)) on the Small Intestine (SI)-to-Colon Sensitivity Index mice relative to the non-selective reference compound [Gly2]GLP-2 (SEQ ID NO:54). Compounds were administered by subcutaneous injection b.i.d. for three days in C57BL mice at the following doses: 0 (vehicle), 5, 15, 45, 135, 405 nmol/kg (n=6/dose group). Responses at each dose level were compared with responses obtained at the same dose level in pair-treated mice treated with the non-selective reference compound [Gly2]GLP-2 (SEQ ID NO:54). The SI-Colon Sensitivity Index was calculated as SI-mass relative to colon mass and the Sensitivity Index at each dose level was normalized to the response observed with the non-selective reference compound [Gly2]GLP-2 (SEQ ID NO:54). […] Values are means±SEM. *: P<0.05 relative to the equimolar dose of [Gly2]GLP-2.
FIG. 4 is a set of graphs showing full dose-response data of three small intestine selective compounds (compound nos. 1857 (SEQ ID NO:45), 1820 (SEQ ID NO:10), and 1849 (SEQ ID NO:37)) on the Small Intestine (SI)-to-Colon Sensitivity Index mice relative to the non-selective reference compound [Gly2]GLP-2 (SEQ ID NO:54). Compounds were administered by subcutaneous injection b.i.d. for three days in C57BL mice at the following doses: 0 (vehicle), 5, 15, 45, 135, 405 nmol/kg (n=6/dose group). Responses at each dose level were compared with responses obtained at the same dose level in pair-treated mice treated with the non-selective reference compound [Gly2]GLP-2 (SEQ ID NO:54). The SI-Colon Sensitivity Index was calculated as SI-mass relative to colon mass and the Sensitivity Index at each dose level was normalized to the response observed with the non-selective reference compound [Gly2]GLP-2 (SEQ ID NO:54). […] Values are means±SEM. *: P<0.05 relative to the equimolar dose of [Gly2]GLP-2 (SEQ ID NO:54).
Compounds were administered by subcutaneous injection b.i.d. for three days in C57BL mice at the following doses: 0 (vehicle), 5, 15, 45, 135, 405 nmol/kg (n=6/dose group). […] Values are means±SEM. *: P<0.05 relative to the vehicle.
The dose-response effect of 1820 (SEQ ID NO:10), 1855 (SEQ ID NO:43), ZP1846 (SEQ ID NO:34), 1858 (SEQ ID NO:46), 1849 (SEQ ID NO:37), 1848 (SEQ ID NO:36), and 1857 (SEQ ID NO:45) on small intestinal mass was determined in male C57BL mice. Individual groups (n=6) of mice were given 5, 15, 45, 135 or 405 nmol/kg of each compound, s.c, twice daily for three consecutive days. For comparison purposes other groups of animals were given either equimolar doses of [Gly2]GLP-2 (SEQ ID NO:54) or vehicle (phosphate buffered saline, pH 7.4) in the same dosing regimen. Twenty-four hours after the last dose of compound had been given the mice were sacrificed and the small intestine (from the pylorus to the cecum emptied and weighed to determine the effect on small intestinal mass.

[2] = system: colonic neoplasms in mice; details: cited from earlier work
[3] = Chemical stability testing: incubation in HCl, NaOH, H2O2 or NH4HCO3 at 40° C., remaining purity by RP-HPLC; type: physicochemical; details: 40° C., 2 mg/ml, relative to the purity at T=0
Method: The GLP-2 analogues were dissolved in purified water and subsequently diluted in solutions containing HCl, NaOH, H2O2 or NH4HCO3. The solutions were incubated at 40° C. to produce hydrolysis, deamidation and oxidation products. The samples were analyzed by RP-HPLC and the percentage of remaining intact compound was determined as a measure for the relative stability. The major degradation products were tentatively identified by LC-MS.
The GLP-2 analogues tested and the reference Gly^2-GLP-2, ZP1559 (SEQ ID NO:54), were dissolved in water and subsequently diluted into solutions containing HCl, NaOH, H2O2 or NH4HCO3. The samples were incubated at 40° C. to generate hydrolysis, deamidation and oxidation products, respectively. The compounds were analysed by RP-HPLC for purity of the original main peak and by LC-MS for confirmation of the identity by mass of the main peak and major degradation products.
The GLP-2 analogues were first dissolved in MQW to a concentration of 4 mg/ml and then further diluted in the stress solutions at a 1:1 ratio (e.g. 125 μl plus 125 μl). The final concentrations were 2 mg/ml of the GLP-2 analogues for stress conditions with 0.1 M HCl, 0.01M NaOH, 0.1 M NH4HCO3 and 0.5% H2O2, respectively.
The solutions were incubated at 40° C. in the dark and then diluted in Eluent A to a concentration of 0.5 mg/ml (addition of 750 μl) prior to analyses by RP-HPLC and by LC-MS.
The RP-HPLC analyses were performed on an Agilent Series 1100 HPLC system under control of the ChemStation (Revision A.08.03 [847]) software from Agilent Technologies, Inc. The raw data and the results of the peak integration were deposited on the ChemStore C/S server by the use of Agilent Technologies Revision B01.03 software.
The results are shown in Table 9 as the compound purity measured by RP-HPLC after incubation under stress conditions. This purity is a measure for the remaining intact compound after incubation in stress solutions, relative to the purity measured a T=0.

[4] = system: male C57BL mice; experiment: Screening for intestinal growth effects (small intestine and colon mass relative to body weight, small intestine-colon sensitivity index); type: in vivo
Method: The ability of the present compounds to stimulate intestinal growth was determined in male C57BL mice. Individual groups (n=6) of mice were given 30 nmol/kg of each compound, s.c, twice daily for ten consecutive days. For comparison purposes other groups of animals were given either an equimolar dose of [Gly2]GLP-2 (SEQ ID NO:54) or vehicle (phosphate buffered saline, pH 7.4) in the same dosing regimen. Twenty-four hours after the last dose of compound had been given the mice were sacrificed and the small intestine (from the pylorus to the cecum) and the colon (intestine distal to cecum) was emptied and weighed. To correct for slight difference in body weight (BW), the organ mass of the small intestine (SI) and colon were expressed relative to BW. The non-selective reference compound [Gly2]GLP-2 (SEQ ID NO:54) has been reported to stimulate gastrointestinal growth in both esophagus, stomach, small intestine and colon and to evaluate differences in growth pattern induced by compounds, the small intestine-colon sensitivity index of compound X was calculated as:
(SI/Colon)X/(SI/Colon)[Gly2]GLP-2%
Compounds with a small intestine-colon sensitivity greater than or equal to 1.05 were considered relatively selective for the small intestine (Table 15).
Compounds with a small intestine-colon sensitivity smaller than or equal to 0.95 were considered relatively selective for the colon (Table 15).

[5] = Tentative identification of major degradation products in stress test samples by LC-MS; type: physicochemical; details: 3 days at 40° C. in 0.5% H2O2
Method: Analytical LC-MS analyses were performed on an Agilent Technologies 1100 HPLC instrument consisting of an on-line degasser, quaternary gradient pump, an auto sampler, a column oven, an UV detector. The HPLC instrument was interfaced with a Micromass LCT (ESI-TOF) mass spectrometer under control of Masslynx 3.5 software, from MicroMass, UK.
Major degradation products in the stress test samples were tentatively identified by the LC-MS method. Any isomers to the parent compounds and minor degradation products were not observed by this analytical LC-MS method.

H-[Gly2]hGLP-2-OH [Compound 1559, reference compound]
Growth stimulation of small intestine, colon and stomach mass [1]: produced dose-dependent growth stimulation in small intestine, colon and stomach
Growth of colonic neoplasms [2]: accelerate the growth of colonic neoplasms in mice
Purity H2O2 0.5% 3 days ([3]; RP-HPLC): <5%
Purity HCl 0.1M 12 days ([3]; RP-HPLC): 57%
Purity NH4HCO3 0.1M 6 days ([3]; pH 8, RP-HPLC): 66%
Preferential growth of small intestine versus colon (small intestine-colon sensitivity) ([4]; 30 nmol/kg s.c. twice daily, ten days, relative to [Gly2]GLP-2): without preferential growth in small intestine or colon
colon mass relative to body weight, % [Gly2]GLP-2 ([4]; male C57BL mice, 30 nmol/kg s.c. twice daily for ten days): 100 % [Gly2]GLP-2
small intestine-colon sensitivity index, (SI/Colon)X/(SI/Colon)[Gly2]GLP-2 % ([4]; male C57BL mice, 30 nmol/kg s.c. twice daily for ten days, third value column): 100 % [Gly2]GLP-2
Intact product found by LC-MS after H2O2 stress [5]: No product intact
